Assays:
[1] = target: T1, human ILT4 expressed on cells (human, UniProt Q8N423 22-597); assay: cell-based or functional assay
LILRA6 = target: T2, LILRA6 (human, UniProt Q6PI73 24-447); assay: SPR, Biacore 8K, mAb captured on anti-human Fc, analyte injected
T2 construct: Bought protein; limits of the extracellular domain are marked by bold type not visible here; whole entry named; also called recombinant human LILRA6
Method: (§1) SPR was used to determine the specificity of four humanized anti-ILT4 mAbs for binding to LILRB2 and to determine any cross-reactivity with nine other LILRA and LILRB family members. LILR proteins were purchased from Acro Biosystems or R&D Systems, with sequence provided below. The studies were performed with a Biacore 8K instrument using a CM4 sensor chip with a running buffer of HBS-P+, 100 μg/mL BSA. Anti-human Fc specific capture surfaces were prepared using standard amine coupling chemistry. MAb was captured to flow cell 2 with flow cell 1 serving as the reference flow cell. Each of the nine family members and LILRB2 were injected at 100 nM at 30 μL/min for 90 sec with 240 sec of dissociation. […] All sensorgrams were doubled-referenced during processing of the data.

LILRA1 = target: T3, LILRA1 (human, UniProt O75019 17-461); assay: as above
T3 construct: Bought protein; limits of the extracellular domain are marked by bold type not visible here; whole entry named; also called recombinant human LILRA1
T3 sequence (O75019 other isoform, or with tags, fused parts or gaps): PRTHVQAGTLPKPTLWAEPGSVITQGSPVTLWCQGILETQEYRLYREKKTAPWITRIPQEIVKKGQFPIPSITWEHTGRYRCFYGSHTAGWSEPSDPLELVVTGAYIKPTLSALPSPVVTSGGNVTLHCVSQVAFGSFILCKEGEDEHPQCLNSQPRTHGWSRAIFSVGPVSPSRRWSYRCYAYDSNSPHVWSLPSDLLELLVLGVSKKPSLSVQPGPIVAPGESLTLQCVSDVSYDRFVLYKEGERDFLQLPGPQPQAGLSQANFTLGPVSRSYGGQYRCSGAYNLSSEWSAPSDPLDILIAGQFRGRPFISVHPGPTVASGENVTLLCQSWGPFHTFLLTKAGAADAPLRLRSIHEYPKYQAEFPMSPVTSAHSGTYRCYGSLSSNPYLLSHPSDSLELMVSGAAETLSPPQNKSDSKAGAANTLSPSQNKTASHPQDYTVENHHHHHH
Method: as §1

LILRA4 = target: T4, LILRA4 (human, UniProt P59901 24-446); assay: as above
T4 construct: Bought protein; limits of the extracellular domain are marked by bold type not visible here; whole entry named; also called recombinant human LILRA4
T4 sequence (P59901 other isoform, or with tags, fused parts or gaps): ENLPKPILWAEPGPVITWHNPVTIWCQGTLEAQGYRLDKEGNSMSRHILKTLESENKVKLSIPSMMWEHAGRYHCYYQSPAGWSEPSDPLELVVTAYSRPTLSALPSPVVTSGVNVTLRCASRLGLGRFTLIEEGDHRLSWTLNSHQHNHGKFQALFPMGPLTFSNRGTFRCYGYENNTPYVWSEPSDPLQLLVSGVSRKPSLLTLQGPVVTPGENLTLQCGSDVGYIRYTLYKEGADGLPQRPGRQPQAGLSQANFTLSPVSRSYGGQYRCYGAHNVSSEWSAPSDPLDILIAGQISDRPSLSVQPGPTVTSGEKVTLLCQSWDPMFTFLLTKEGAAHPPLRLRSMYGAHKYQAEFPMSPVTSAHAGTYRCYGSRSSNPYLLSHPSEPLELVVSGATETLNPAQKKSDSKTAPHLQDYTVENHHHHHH
Method: as §1

LILRA2 = target: T5, LILRA2 (human, UniProt Q8N149 24-449); assay: as above
T5 construct: Bought protein; limits of the extracellular domain are marked by bold type not visible here; whole entry named; also called recombinant human LILRA2
T5 sequence (Q8N149 other isoform, or with tags, fused parts or gaps): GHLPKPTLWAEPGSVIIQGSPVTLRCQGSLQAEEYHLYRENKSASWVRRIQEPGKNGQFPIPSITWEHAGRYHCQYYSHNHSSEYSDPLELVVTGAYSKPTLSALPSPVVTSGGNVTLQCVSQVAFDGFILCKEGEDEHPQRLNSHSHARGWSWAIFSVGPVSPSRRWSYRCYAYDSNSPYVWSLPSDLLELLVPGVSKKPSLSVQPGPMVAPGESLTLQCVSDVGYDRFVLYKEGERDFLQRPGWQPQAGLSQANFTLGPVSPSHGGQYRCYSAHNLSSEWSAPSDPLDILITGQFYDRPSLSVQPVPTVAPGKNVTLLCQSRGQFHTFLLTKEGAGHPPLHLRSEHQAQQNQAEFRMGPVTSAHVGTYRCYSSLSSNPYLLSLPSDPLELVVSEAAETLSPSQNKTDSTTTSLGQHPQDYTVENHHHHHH
Method: as §1

LILRB3 = target: T6, LILRB3 (human, UniProt O75022 24-443); assay: as above
T6 construct: Bought protein; limits of the extracellular domain are marked by bold type not visible here; whole entry named; also called recombinant human LILRB3; ILT5
T6 sequence (O75022 other isoform, or with tags, fused parts or gaps): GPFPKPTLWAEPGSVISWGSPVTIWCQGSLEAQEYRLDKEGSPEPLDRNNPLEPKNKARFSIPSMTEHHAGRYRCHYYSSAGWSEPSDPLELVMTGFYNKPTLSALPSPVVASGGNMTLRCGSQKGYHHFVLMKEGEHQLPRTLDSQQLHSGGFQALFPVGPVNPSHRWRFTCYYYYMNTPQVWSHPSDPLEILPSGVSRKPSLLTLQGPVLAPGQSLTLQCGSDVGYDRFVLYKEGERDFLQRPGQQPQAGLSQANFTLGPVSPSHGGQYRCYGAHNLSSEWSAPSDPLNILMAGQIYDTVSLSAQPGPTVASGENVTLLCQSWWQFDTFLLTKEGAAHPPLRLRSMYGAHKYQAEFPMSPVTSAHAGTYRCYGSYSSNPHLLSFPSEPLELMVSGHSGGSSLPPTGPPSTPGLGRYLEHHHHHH
Method: as §1

LILRB4 = target: T7, LILRB4 (human, UniProt Q8NHJ6 22-259); assay: as above
T7 construct: Bought protein; limits of the extracellular domain are marked by bold type not visible here; whole entry named; also called recombinant human LILRB4; ILT3
T7 sequence (Q8NHJ6 other isoform, or with tags, fused parts or gaps): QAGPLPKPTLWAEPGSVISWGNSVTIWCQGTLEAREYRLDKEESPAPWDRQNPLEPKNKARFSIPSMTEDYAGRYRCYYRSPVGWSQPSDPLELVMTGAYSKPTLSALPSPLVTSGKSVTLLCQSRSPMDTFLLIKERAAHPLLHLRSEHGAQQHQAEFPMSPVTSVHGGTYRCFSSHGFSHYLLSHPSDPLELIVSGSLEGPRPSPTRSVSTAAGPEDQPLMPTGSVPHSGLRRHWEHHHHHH
Method: as §1

LILRA3 = target: T8, LILRA3 (human, UniProt Q8N6C8 24-439); assay: as above
T8 construct: Bought protein; limits of the part used are marked by bold type not visible here; whole entry named; also called recombinant human LILRA3
T8 sequence (Q8N6C8 24-439 A105V limits assumed): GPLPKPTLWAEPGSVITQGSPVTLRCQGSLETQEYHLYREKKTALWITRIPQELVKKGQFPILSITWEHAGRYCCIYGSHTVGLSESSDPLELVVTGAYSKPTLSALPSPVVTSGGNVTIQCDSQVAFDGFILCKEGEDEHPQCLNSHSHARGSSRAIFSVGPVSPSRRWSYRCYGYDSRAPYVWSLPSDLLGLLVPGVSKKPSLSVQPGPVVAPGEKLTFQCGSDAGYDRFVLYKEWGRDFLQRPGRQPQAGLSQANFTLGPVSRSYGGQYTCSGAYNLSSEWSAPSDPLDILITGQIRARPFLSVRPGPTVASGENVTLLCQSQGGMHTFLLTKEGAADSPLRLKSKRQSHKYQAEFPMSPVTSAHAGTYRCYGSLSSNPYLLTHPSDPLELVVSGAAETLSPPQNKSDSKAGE
Method: as §1

LILRA5 = target: T9, LILRA5 (human, UniProt A6NI73 42-268); assay: as above
T9 construct: Bought protein; limits of the extracellular domain are marked by bold type not visible here; whole entry named; also called recombinant human LILRA5
T9 sequence (A6NI73 other isoform, or with tags, fused parts or gaps): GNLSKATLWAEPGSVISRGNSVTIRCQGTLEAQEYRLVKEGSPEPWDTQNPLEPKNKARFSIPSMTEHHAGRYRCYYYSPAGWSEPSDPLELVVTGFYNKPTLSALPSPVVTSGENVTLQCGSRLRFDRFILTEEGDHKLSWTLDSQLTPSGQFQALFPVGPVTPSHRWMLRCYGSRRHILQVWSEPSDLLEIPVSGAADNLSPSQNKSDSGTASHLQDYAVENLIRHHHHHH
Method: as §1

LILRB1 = target: T10, LILRB1 (human, UniProt Q8NHL6 24-461); assay: as above
T10 construct: Bought protein; limits of the extracellular domain are marked by bold type not visible here; whole entry named; also called recombinant human LILRB1; ILT2
T10 sequence (Q8NHL6 other isoform, or with tags, fused parts or gaps): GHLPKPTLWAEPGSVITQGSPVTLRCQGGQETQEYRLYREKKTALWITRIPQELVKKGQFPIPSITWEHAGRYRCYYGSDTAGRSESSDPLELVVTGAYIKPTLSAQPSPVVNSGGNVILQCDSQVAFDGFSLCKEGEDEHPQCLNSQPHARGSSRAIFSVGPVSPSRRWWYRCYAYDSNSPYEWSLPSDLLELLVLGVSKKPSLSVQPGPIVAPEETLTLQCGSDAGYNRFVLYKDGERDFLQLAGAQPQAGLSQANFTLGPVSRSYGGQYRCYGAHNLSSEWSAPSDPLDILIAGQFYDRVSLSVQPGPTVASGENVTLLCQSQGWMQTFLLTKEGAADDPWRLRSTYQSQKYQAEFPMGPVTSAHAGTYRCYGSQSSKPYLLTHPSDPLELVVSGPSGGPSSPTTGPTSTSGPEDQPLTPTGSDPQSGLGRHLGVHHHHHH
Method: as §1

[2] = target: T1, human ILT4 expressed on cells; assay: flow cytometry, blockade of PE-HLA-A tetramer (5 ug/ml) binding to ILT4-CHO cells, Experiment 1 (table title prints HLA-G)
[3] = target: T1, human ILT4 expressed on cells; assay: flow cytometry, blockade of PE-HLA-G tetramer binding to ILT4-CHO cells, Experiment 1
[4] = target: T11, recombinant human ILT4 (LILRB2) (human, UniProt Q8N423 22-460); assay: KinExA, solution equilibrium, n-curve analysis
T11 construct: Bought protein (Acro Biosystems or R&D Systems); also called ILTR4
T11 sequence (Q8N423 other isoform, or with tags, fused parts or gaps limits assumed): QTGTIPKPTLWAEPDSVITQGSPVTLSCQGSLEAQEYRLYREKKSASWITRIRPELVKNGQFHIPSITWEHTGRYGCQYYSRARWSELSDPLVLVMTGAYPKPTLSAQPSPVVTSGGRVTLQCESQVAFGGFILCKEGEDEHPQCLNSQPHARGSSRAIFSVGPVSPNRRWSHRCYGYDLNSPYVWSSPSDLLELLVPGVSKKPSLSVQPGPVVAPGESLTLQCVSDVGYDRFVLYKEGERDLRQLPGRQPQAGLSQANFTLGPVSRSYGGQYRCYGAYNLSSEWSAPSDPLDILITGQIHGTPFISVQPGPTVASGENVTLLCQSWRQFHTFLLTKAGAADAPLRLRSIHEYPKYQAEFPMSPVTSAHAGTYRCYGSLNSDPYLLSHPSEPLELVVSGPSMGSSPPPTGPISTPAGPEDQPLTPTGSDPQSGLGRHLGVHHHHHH
Method: Kinetic Exclusion Assay (KinExA®) was performed to measure the equilibrium binding affinity and kinetics between human ILT4 and four humanized LALA-Fc modified antibodies in solution. For affinity analysis, the equilibrium dissociation constant, KD, was experimentally determined and reflects the strength of the binding interaction. The rate of association, kₒₙ, was also experimentally determined, while the rate of dissociation, koff, is calculated based on the following equation: koff=KD×kₒₙ
The binding affinity (KD), association (kₒₙ), and dissociation rate constants (koff) were measured for 4 different Humanized LALA IgG antibodies to ILT4 using KinExA. An n-curve analysis of at least two different curves, run at two different CBP concentrations, was used to determine the KD of the interactions The ILT4 was used as the concentration reference for all curves. All of the binding systems have low error and well defined 95% confidence intervals giving confidence to the measurements: […]

[5] = target: T1, human ILT4 expressed on cells; assay: flow cytometry on ILT4-CHO cells, unlabelled mAb titrated; competitor AF647-Hz156.03-LALA
Method: Competition binding assays were performed. […] Binding activities were measured by flow cytometry.
Anti-human ILT4 mAbs at various concentrations (0-15 μg/ml) were incubated with ILT4-CHO cells. Cells were washed and stained with AF647-Hz156.03-LALA. Cells were analyzed by flow cytometry.

[6] = target: T1, human ILT4 expressed on cells; assay: flow cytometry, blockade of PE-HLA-A tetramer (5 ug/ml) binding to ILT4-CHO cells, Experiment 2 (table title prints HLA-G)
[7] = target: T1, human ILT4 expressed on cells; assay: flow cytometry, AF647-labelled mAb on ILT4-CHO cells
Method: AF647-Hz45.01-LALA and AF647-Hz156.03-LALA at various concentrations (0-10 μg/ml) were incubated with ILT4-CHO cells and analyzed by flow cytometry.

[8] = target: T1, human ILT4 expressed on cells; assay: flow cytometry, blockade of PE-HLA-G tetramer binding to ILT4-CHO cells, Experiment 3

T1 sequence (Q8N423 22-597): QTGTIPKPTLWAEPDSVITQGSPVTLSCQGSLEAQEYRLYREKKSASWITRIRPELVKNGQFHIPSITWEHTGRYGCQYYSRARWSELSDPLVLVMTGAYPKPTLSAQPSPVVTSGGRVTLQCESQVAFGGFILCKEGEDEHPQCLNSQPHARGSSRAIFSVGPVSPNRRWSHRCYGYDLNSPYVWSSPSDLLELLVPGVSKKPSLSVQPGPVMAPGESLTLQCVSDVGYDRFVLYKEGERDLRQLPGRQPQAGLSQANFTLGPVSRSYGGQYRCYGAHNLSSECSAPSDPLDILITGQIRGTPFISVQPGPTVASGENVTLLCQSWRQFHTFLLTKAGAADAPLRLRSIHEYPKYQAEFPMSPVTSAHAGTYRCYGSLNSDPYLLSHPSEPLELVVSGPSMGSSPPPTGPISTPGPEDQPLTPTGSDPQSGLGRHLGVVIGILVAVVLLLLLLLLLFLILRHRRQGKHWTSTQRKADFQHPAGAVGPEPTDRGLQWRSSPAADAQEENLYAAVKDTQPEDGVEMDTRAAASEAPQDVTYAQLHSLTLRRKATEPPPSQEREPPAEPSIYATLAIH
T2 sequence (Q6PI73 other isoform, or with tags, fused parts or gaps): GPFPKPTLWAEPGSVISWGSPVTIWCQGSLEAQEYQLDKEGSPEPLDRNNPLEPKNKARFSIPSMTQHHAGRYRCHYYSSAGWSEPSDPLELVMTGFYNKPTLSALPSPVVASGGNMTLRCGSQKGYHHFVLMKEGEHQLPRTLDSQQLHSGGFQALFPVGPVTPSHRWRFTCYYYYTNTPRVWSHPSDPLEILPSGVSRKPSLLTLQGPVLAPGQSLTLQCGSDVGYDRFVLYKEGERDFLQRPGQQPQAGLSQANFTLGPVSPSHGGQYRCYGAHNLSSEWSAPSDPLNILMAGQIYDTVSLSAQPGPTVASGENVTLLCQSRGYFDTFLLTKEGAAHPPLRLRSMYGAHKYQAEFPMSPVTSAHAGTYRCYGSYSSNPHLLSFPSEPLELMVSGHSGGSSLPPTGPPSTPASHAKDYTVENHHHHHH

B1: Hz45.01-LALA (antibody, human IgG1, kappa, L234A L235A, V domains shown)
VH: QVQLVQSGAEVKKPGASVKVSCKASGYTFTDYYMNWVRQAPGQRLEWIGDINPNNGGTSYNQKFKGRATITVDTSASTAYMELSSLRSEDTAVYYCARGGAELTGTYWYFDVWGQGTTVTVSS
VL: DIQMTQSPSSLSASVGDRVTITCRASENIYSNLAWYQQKPGKAPKVLVYGATNLADGVPSRFSGSGSGTEYTLTISSLQPEDFATYYCQHFWDSPFTFGGGTKVEIKR
notes: Humanized L45S4, human IgG1 L234A/L235A, kappa; also called Humanized 45_01; Hu IgG 45_01 LALA
EC50 value of TNFa production, donor 4 [1]: 13.8 ng/mL
EC50 value of TNFa production, donor 5 [1]: 18.5 ng/mL
binding result (LILRA6): no binding (tested: 100 nM)
binding result (LILRA1): no binding (tested: 100 nM)
binding result (LILRA4): no binding (tested: 100 nM)
binding result (LILRA2): no binding (tested: 100 nM)
binding result (LILRB3): no binding (tested: 100 nM)
binding result (LILRB4): no binding (tested: 100 nM)
binding result (LILRA3): no binding (tested: 100 nM)
binding result (LILRA5): no binding (tested: 100 nM)
binding result (LILRB1): no binding (tested: 100 nM)
IC50 [2]: 0.106 µg/mL
IC50 [3]: 0.198 µg/mL
Kd [4]: 0.0851 nM
IC50 [5]: 0.381 µg/mL
IC50 [6]: 0.122 µg/mL
EC50 [7]: 162 µg/mL
IC50 [8]: 0.185 µg/mL

B2: Hz156.03-LALA (antibody, human IgG1, kappa, L234A L235A, V domains shown)
VH: QVQLVQSGAEVKKPGSSVKVSCKASGYTFTDYYMNWVRQAPGQGLEWIARIYPGVYRTHYNEKFKDRVTLTADKSTSTAYMELSSLRSEDTAVYYCARSGYYGGTYEEDAMDYWGQGTTVTVSS
VL: DIQMTQSPSSLSASVGDRVTITCRASENIYSNLAWYQQKPGKAPKLLVYAATSLADGVPSRFSGSGSGTDYTLTISSLQPEDFATYYCQNFWDTPYTFGQGTKVEIKR
notes: Humanized L156S3, human IgG1 L234A/L235A, kappa
EC50 value of TNFa production, donor 4 [1]: 7.24 ng/mL
EC50 value of TNFa production, donor 5 [1]: 23.6 ng/mL
binding result (LILRA6): no binding (tested: 100 nM)
binding result (LILRA1): no binding (tested: 100 nM)
binding result (LILRA4): no binding (tested: 100 nM)
binding result (LILRA2): no binding (tested: 100 nM)
binding result (LILRB3): no binding (tested: 100 nM)
binding result (LILRB4): no binding (tested: 100 nM)
binding result (LILRA3): no binding (tested: 100 nM)
binding result (LILRA5): no binding (tested: 100 nM)
binding result (LILRB1): no binding (tested: 100 nM)
IC50 [2]: 0.149 µg/mL
IC50 [3]: 0.19 µg/mL
Kd [4]: 0.00916 nM
IC50 [5]: 0.422 µg/mL
IC50 [6]: 0.152 µg/mL
EC50 [7]: 248 µg/mL
IC50 [8]: 0.233 µg/mL

— US20260167714A1 (COHERUS BIOSCIENCES, published 2026)
